Measurements taken from the supplement of paper PMC10065799, “High-throughput profiling of sequence recognition by tyrosine kinases and SH2 domains using bacterial peptide display” (eLife, 2023).

How the values were obtained:
c-Src SH2 = experiment: SH2 binding enrichment of the phosphorylated peptide, bacterial display (enrichment ratio); higher = better substrate or ligand; peptides without Tyr show the background
SHP2-C SH2 = experiment: as above
Grb2 SH2 = Grb2 SH2 (UniProt P62993); experiment: as above
FGFR1 = FGFR1 (UniProt P11362); experiment: phosphorylation enrichment, bacterial display (enrichment ratio); higher = better substrate or ligand; peptides without Tyr show the background
Jak2 = Jak2 (UniProt O60674); experiment: as above
EPHB2 = EPHB2 (UniProt P29323); experiment: as above
c-Abl (mouse) = experiment: as above
MERTK = MERTK (UniProt Q12866); experiment: as above
FGFR3 = FGFR3 (UniProt P22607); experiment: as above
AncSZ = experiment: as above
Hck = Hck (UniProt P08631); experiment: as above
Fes = Fes (UniProt P07332); experiment: as above
EPHB1 = EPHB1 (UniProt P54762); experiment: as above
Fyn = Fyn (UniProt P06241); experiment: as above
c-Src = experiment: as above
Fer (mouse) = experiment: as above
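Throughout, for SH2 binding enrichment of the phosphorylated peptide, bacterial display: peptide library displayed on the E. coli surface as eCPX fusions, selected cells deep-sequenced, score is each peptide's frequency after selection divided by its frequency in the input.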
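Throughout, for phosphorylation enrichment, bacterial display: 11-residue human phosphosite peptides and single-mutation variants displayed on the E. coli surface, counted by deep sequencing, each peptide's frequency after selection divided by its frequency in the unselected input library; frequency after pTyr selection over input frequency; kinase dosed for 20-30% of maximal phosphorylation in three min.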

Fes, sequence (P07332 whole entry, looked up): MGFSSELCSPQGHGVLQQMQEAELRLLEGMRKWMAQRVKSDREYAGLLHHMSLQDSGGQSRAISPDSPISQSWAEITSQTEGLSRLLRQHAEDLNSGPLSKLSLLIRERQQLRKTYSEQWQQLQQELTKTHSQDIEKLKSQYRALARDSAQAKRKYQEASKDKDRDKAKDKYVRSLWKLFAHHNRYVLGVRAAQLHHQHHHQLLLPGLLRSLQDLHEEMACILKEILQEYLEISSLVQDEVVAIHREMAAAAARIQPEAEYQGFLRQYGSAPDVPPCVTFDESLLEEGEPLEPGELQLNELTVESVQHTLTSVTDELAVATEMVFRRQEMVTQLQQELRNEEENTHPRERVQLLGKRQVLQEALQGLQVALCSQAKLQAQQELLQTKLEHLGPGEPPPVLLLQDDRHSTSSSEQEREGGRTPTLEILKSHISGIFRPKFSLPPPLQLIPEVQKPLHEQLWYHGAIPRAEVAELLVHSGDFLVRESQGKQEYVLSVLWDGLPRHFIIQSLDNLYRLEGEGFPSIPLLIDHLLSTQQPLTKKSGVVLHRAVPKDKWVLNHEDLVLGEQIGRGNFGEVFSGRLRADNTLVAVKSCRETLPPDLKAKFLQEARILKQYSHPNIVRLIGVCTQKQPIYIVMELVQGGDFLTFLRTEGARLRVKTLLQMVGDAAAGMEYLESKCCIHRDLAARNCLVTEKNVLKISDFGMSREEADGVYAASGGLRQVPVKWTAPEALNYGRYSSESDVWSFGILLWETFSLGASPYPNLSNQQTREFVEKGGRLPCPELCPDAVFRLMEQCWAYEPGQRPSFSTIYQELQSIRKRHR
FGFR1, sequence (P11362 whole entry, looked up): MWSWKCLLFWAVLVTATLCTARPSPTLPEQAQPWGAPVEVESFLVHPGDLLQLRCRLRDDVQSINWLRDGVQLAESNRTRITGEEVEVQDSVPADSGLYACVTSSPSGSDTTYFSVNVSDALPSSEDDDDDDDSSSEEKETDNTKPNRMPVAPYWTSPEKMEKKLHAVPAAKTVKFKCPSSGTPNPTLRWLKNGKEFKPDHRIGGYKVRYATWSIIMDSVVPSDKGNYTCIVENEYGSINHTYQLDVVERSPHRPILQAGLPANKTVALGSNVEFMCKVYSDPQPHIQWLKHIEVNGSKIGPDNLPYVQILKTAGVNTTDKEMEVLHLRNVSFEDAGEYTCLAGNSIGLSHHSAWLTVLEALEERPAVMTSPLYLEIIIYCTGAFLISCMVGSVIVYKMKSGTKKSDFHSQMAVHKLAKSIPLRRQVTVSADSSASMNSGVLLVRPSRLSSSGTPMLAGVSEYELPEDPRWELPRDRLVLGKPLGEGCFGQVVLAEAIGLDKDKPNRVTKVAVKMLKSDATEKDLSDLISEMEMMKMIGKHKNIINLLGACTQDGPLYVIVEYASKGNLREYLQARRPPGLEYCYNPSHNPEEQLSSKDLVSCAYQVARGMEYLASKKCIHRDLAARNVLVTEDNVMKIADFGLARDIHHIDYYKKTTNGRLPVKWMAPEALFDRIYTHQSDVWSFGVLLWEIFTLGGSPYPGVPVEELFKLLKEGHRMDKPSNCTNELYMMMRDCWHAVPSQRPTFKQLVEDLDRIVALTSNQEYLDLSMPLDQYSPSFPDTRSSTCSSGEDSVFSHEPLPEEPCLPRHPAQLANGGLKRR
EPHB1, sequence (P54762 whole entry, looked up): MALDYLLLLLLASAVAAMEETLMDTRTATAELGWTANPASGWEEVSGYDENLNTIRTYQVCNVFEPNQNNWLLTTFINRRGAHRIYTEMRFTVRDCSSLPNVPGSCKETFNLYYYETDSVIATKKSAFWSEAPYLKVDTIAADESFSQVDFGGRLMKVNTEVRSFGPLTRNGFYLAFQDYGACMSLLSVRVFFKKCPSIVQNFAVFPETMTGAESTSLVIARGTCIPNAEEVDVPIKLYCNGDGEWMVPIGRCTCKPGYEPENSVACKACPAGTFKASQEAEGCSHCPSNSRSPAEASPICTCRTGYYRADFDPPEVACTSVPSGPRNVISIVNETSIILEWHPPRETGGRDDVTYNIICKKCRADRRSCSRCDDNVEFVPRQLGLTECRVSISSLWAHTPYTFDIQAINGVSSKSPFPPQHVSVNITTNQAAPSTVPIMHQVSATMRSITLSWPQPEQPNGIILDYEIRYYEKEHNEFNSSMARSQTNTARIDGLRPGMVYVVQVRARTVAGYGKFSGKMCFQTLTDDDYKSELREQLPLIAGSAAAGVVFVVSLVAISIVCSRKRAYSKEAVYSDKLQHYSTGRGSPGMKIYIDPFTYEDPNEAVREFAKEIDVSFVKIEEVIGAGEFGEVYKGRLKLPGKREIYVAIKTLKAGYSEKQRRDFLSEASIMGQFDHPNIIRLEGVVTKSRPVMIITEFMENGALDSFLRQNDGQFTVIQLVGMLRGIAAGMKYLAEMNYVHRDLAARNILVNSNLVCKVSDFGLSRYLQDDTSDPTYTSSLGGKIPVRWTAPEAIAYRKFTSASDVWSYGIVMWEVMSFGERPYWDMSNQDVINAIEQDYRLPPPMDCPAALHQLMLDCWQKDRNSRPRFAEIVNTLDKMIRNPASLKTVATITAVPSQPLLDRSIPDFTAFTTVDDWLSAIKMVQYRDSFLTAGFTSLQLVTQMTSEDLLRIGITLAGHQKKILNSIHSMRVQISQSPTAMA
FGFR3, sequence (P22607 whole entry, looked up): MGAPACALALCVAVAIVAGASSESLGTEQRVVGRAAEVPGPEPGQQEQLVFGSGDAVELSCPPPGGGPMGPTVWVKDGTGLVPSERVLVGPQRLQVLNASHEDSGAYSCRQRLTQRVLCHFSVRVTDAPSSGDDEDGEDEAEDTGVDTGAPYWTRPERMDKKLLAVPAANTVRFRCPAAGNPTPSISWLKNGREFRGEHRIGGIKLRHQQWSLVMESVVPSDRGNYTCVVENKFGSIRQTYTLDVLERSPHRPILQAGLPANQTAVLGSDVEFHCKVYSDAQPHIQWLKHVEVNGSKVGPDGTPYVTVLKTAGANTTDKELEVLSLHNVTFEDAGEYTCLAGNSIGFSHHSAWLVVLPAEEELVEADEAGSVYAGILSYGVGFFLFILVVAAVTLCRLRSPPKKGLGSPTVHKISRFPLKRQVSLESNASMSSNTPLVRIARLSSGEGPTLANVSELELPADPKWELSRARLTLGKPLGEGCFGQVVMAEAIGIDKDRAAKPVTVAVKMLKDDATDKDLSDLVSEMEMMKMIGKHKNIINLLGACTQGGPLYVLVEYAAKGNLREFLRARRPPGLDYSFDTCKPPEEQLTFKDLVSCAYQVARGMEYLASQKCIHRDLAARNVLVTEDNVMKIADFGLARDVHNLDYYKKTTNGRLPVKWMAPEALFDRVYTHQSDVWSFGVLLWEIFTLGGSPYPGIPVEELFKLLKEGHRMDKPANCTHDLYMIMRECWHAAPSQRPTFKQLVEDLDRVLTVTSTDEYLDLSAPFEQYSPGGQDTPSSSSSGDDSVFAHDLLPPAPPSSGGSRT
EPHB2, sequence (P29323 whole entry, looked up): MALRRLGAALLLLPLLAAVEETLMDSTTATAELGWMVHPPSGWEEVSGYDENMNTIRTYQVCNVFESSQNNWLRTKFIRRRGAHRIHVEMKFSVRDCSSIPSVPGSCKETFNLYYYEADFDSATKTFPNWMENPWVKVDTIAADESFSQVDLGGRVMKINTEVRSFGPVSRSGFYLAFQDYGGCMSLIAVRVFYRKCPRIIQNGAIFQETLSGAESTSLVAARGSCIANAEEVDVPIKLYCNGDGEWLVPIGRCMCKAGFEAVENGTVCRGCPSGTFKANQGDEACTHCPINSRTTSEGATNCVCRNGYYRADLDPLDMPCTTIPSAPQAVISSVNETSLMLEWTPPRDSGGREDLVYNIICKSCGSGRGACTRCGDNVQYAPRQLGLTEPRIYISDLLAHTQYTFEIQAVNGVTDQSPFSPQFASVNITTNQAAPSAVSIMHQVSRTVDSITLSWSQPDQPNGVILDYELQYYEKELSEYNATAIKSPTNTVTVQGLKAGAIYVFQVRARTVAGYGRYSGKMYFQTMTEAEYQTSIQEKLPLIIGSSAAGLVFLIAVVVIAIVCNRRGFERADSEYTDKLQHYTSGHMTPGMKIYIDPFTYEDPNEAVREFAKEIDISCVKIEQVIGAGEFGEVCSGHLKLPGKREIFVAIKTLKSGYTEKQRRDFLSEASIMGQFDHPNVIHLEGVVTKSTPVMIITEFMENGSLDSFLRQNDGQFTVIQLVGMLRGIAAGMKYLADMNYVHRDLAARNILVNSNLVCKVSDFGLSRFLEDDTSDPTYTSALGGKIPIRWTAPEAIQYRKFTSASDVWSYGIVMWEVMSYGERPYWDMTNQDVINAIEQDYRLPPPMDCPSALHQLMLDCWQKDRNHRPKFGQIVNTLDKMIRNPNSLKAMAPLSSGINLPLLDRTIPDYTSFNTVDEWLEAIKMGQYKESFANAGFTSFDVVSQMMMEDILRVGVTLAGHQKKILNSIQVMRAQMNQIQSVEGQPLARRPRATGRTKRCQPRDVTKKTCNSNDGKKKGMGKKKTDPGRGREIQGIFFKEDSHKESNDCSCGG
Hck, sequence (P08631 whole entry, looked up): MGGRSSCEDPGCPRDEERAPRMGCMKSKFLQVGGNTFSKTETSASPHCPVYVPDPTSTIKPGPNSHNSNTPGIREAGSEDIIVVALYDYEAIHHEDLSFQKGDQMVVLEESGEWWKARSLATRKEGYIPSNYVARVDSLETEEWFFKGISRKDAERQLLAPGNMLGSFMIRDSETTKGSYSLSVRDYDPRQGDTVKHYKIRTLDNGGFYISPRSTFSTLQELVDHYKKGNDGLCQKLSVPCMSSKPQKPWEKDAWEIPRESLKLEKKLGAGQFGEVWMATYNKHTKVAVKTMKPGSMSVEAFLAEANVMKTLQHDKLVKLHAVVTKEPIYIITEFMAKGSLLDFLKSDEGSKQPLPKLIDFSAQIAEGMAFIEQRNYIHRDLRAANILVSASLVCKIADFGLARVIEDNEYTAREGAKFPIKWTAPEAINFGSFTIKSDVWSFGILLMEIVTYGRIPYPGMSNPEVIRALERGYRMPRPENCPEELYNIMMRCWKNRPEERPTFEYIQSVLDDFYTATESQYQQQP

Sequence | SH2 binding enrichment (c-Src SH2) | SH2 binding enrichment (SHP2-C SH2) | SH2 binding enrichment (Grb2 SH2) | phosphorylation enrichment (FGFR1) | phosphorylation enrichment (Jak2) | phosphorylation enrichment (EPHB2) | phosphorylation enrichment (c-Abl (mouse)) | phosphorylation enrichment (MERTK) | phosphorylation enrichment (FGFR3) | phosphorylation enrichment (AncSZ) | phosphorylation enrichment (Hck) | phosphorylation enrichment (Fes) | phosphorylation enrichment (EPHB1) | phosphorylation enrichment (Fyn) | phosphorylation enrichment (c-Src) | phosphorylation enrichment (Fer (mouse))
AACQHYGVRTC [NR4A2_Y275] | 0.721 | 0.896 | 1 | 0.472 | 0.513 | 0.412 | 0.424 | 0.406 | 0.405 | 0.592 | 0.421 | 0.581 | 0.381 | 0.452 | 0.408 | 0.379
AAILGYCRGEA [XPC_Y669] | 0.57 | 0.683 | 0.821 | 0.541 | 0.786 | 0.45 | 0.718 | 0.413 | 0.556 | 0.789 | 0.467 | 1.02 | 0.567 | 0.438 | 0.372 | 0.419
AALRLYHVSDS [VIL1_Y256_K254R] | 0.593 | 0.526 | 0.757 | 0.641 | 0.734 | 0.508 | 0.798 | 0.478 | 0.763 | 0.738 | 0.485 | 0.959 | 0.617 | 0.579 | 0.451 | 0.531
AALVQYYMEHH [PTPN11_Y80_E76A] | 0.742 | 1.16 | 0.991 | 0.722 | 0.745 | 1.17 | 0.49 | 0.68 | 0.767 | 0.937 | 0.813 | 0.912 | 1.9 | 0.529 | 0.541 | 0.415
AAQNCYKVTNG [TPI1_Y105] | 0.594 | 0.543 | 0.852 | 0.523 | 0.665 | 0.421 | 0.738 | 0.411 | 0.536 | 0.725 | 0.408 | 0.905 | 0.37 | 0.411 | 0.356 | 0.391
ADDSYYTVRSA [ZAP70_Y493_A495V] | 0.874 | 0.753 | 0.733 | 7.54 | 1.47 | 0.637 | 0.611 | 0.784 | 5.2 | 1.56 | 2.89 | 0.941 | 0.709 | 2.01 | 2.45 | 0.425
ADELEYSRTGL [MMUT_Y287_G284E] | 0.457 | 0.623 | 0.747 | 0.402 | 0.741 | 0.568 | 0.644 | 0.407 | 0.645 | 1.11 | 0.517 | 0.972 | 0.596 | 0.482 | 0.464 | 0.437
ADLLDYIKALN [HPRT1_Y81] | 0.468 | 0.607 | 0.786 | 0.434 | 0.928 | 0.558 | 0.754 | 0.48 | 0.695 | 1.07 | 0.52 | 1.2 | 0.625 | 0.445 | 0.484 | 0.531
ADQLDYIKALN [HPRT1_Y81_L78Q] | 0.491 | 0.559 | 0.914 | 0.458 | 0.861 | 0.474 | 0.708 | 0.441 | 0.608 | 1.06 | 0.526 | 1.22 | 0.784 | 0.492 | 0.408 | 0.451
ADRSCYDLSCH [GARS1_Y467] | 0.985 | 0.968 | 0.79 | 0.433 | 0.798 | 0.528 | 0.631 | 0.457 | 0.586 | 0.92 | 0.561 | 0.91 | 0.486 | 0.604 | 0.472 | 0.431
ADYPDYKYRPR [SOX11_Y116] | 0.587 | 1.18 | 0.973 | 0.594 | 0.601 | 0.489 | 0.461 | 0.378 | 0.613 | 0.673 | 0.505 | 0.718 | 0.48 | 0.389 | 0.409 | 0.342
AEFGLYGAMVR [VSX2_Y222_YF] | 0.42 | 0.816 | 0.783 | 0.538 | 0.868 | 0.719 | 0.678 | 0.674 | 0.715 | 1.07 | 6.05 | 1.21 | 0.741 | 5.3 | 3.61 | 0.828
AEFGLYRAMVR [VSX2_Y222_G223R_YF] | 0.633 | 0.789 | 0.89 | 0.484 | 0.726 | 0.595 | 1.48 | 0.843 | 0.673 | 0.753 | 4.12 | 0.779 | 0.731 | 0.821 | 0.855 | 0.431
AEQDWYHGAIP [FER_Y461] | 0.634 | 0.478 | 0.725 | 1.72 | 0.802 | 0.546 | 0.646 | 0.443 | 1.54 | 1.06 | 1.22 | 0.921 | 0.481 | 0.846 | 1.19 | 0.559
